In patent US20190321401A1 (JUNO THERAPEUTICS, published 2019):

Key:
Test in all cases: activation reporter or marker
[1] = molecular target: T1, HPV 16 E7(11-19), single-substitution variant E8H (synthetic scanning library) peptide on HLA-A*02:01 (human)
T1 peptide: YMLDLQPHT

[2] = molecular target: T2, HPV 16 E7(11-19), single-substitution variant L3I (synthetic scanning library) peptide on HLA-A*02:01 (human)
T2 peptide: YMIDLQPET

[3] = molecular target: T3, HPV 16 E7(11-19), single-substitution variant L3M (synthetic scanning library) peptide on HLA-A*02:01 (human)
T3 peptide: YMMDLQPET

[4] = molecular target: T4, HPV 16 E7(11-19), single-substitution variant L5Y (synthetic scanning library) peptide on HLA-A*02:01 (human)
T4 peptide: YMLDYQPET

[5] = molecular target: T5, HPV 16 E7(11-19), single-substitution variant T9S (synthetic scanning library) peptide on HLA-A*02:01 (human)
T5 peptide: YMLDLQPES

[6] = molecular target: T6, HPV 16 E7(11-19), single-substitution variant T9L (synthetic scanning library) peptide on HLA-A*02:01 (human)
T6 peptide: YMLDLQPEL

[7] = molecular target: T7, HPV 16 E7(11-19), single-substitution variant M2C (synthetic scanning library) peptide on HLA-A*02:01 (human)
T7 peptide: YCLDLQPET

[8] = molecular target: T8, HPV 16 E7(11-19), single-substitution variant E8K (synthetic scanning library) peptide on HLA-A*02:01 (human)
T8 peptide: YMLDLQPKT

[9] = molecular target: T9, HPV 16 E7(11-19), single-substitution variant E8V (synthetic scanning library) peptide on HLA-A*02:01 (human)
T9 peptide: YMLDLQPVT

[10] = molecular target: T10, HPV 16 E7(11-19), single-substitution variant E8Q (synthetic scanning library) peptide on HLA-A*02:01 (human)
T10 peptide: YMLDLQPQT

[11] = molecular target: T11, HPV 16 E7(11-19), single-substitution variant E8G (synthetic scanning library) peptide on HLA-A*02:01 (human)
T11 peptide: YMLDLQPGT

[12] = molecular target: T12, HPV 16 E7(11-19), single-substitution variant E8R (synthetic scanning library) peptide on HLA-A*02:01 (human)
T12 peptide: YMLDLQPRT

[13] = molecular target: T13, HPV 16 E7(11-19), single-substitution variant Y1I (synthetic scanning library) peptide on HLA-A*02:01 (human)
T13 peptide: IMLDLQPET

[14] = molecular target: T14, HPV 16 E7(11-19), single-substitution variant Y1W (synthetic scanning library) peptide on HLA-A*02:01 (human)
T14 peptide: WMLDLQPET

[15] = molecular target: T15, HPV 16 E7(11-19), single-substitution variant E8P (synthetic scanning library) peptide on HLA-A*02:01 (human)
T15 peptide: YMLDLQPPT

[16] = molecular target: T16, HPV 16 E7(11-19), single-substitution variant E8I (synthetic scanning library) peptide on HLA-A*02:01 (human)
T16 peptide: YMLDLQPIT

[17] = molecular target: T17, HPV 16 E7(11-19), single-substitution variant T9C (synthetic scanning library) peptide on HLA-A*02:01 (human)
T17 peptide: YMLDLQPEC

[18] = molecular target: T18, HPV 16 E7(11-19), single-substitution variant D4N (synthetic scanning library) peptide on HLA-A*02:01 (human)
T18 peptide: YMLNLQPET

[19] = molecular target: T19, HPV 16 E7(11-19), single-substitution variant M2L (synthetic scanning library) peptide on HLA-A*02:01 (human)
T19 peptide: YLLDLQPET

[20] = molecular target: T20, HPV 16 E7(11-19), single-substitution variant T9F (synthetic scanning library) peptide on HLA-A*02:01 (human)
T20 peptide: YMLDLQPEF

[21] = molecular target: T21, HPV 16 E7(11-19), single-substitution variant Y1M (synthetic scanning library) peptide on HLA-A*02:01 (human)
T21 peptide: MMLDLQPET

[22] = molecular target: T22, HPV 16 E7(11-19), single-substitution variant E8M (synthetic scanning library) peptide on HLA-A*02:01 (human)
T22 peptide: YMLDLQPMT

[23] = molecular target: T23, HPV 16 E7(11-19), single-substitution variant T9A (synthetic scanning library) peptide on HLA-A*02:01 (human)
T23 peptide: YMLDLQPEA

[24] = molecular target: T24, HPV 16 E7(11-19), single-substitution variant E8N (synthetic scanning library) peptide on HLA-A*02:01 (human)
T24 peptide: YMLDLQPNT

[25] = molecular target: T25, HPV 16 E7(11-19), single-substitution variant Y1H (synthetic scanning library) peptide on HLA-A*02:01 (human)
T25 peptide: HMLDLQPET

Measured: binding result

B1: TCR 57 (TCR, V domains shown)
Valpha: TQLLEQSPQFLSIQEGENLTVYCNSSSVFSSLQWYRQEPGEGPVLLVTVVTGGEVKKLKRLTFQFGDARKDSSLHITAAQPGDTGLYLCAGARNFNKFYFGSGTKLNVKP
Vbeta: GAVVSQHPSWVICKSGTSVKIECRSLDFQATTMFWYRQFPKQSLMLMATSNEGSKATYEQGVEKDKFLINHASLTLSTLTVTSAHPEDSSFYICSARSWRGGLEQFFGPGTRLTVL
recognises: all assays above
